Experimental data taken from US20230212294A1 (MINGHUI PHARMACEUTICAL SHANGHAI, published 2023).
Changes are numbered by the printed parent chain.

T1: B7-H3 endogenously expressed on human tumor cell lines (human, UniProt Q5ZPR3 29-534)
T1 construct: whole, on cells; The cell line is named in the assay or readout field of each row; also called NCI-H322 cells endogenously expressing B7-H3; B7-H3-positive human tumor cell lines NCI-H1975, BxPC-3, Calu-6
T1 sequence (looked up): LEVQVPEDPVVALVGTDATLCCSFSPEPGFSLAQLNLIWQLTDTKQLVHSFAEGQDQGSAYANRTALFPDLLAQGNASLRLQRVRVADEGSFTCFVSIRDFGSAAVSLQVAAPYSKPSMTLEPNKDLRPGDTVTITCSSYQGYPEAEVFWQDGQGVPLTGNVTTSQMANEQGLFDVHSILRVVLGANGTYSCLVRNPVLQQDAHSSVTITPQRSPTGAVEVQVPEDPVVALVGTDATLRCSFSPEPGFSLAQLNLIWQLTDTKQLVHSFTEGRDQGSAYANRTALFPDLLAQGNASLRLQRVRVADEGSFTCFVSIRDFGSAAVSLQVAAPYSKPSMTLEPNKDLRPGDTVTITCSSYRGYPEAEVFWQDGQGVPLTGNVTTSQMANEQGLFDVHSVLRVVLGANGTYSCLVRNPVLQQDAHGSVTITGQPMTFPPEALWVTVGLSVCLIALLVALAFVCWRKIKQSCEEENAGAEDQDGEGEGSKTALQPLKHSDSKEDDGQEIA

T2: B7-H3 on CHOK cells overexpressing B7-H3
T2 construct: whole, on cells; also called CHO cells that artificially express B7-H3; B7-H3-expressing CHO cells
T2 sequence (Q5ZPR3 whole entry, species assumed, looked up): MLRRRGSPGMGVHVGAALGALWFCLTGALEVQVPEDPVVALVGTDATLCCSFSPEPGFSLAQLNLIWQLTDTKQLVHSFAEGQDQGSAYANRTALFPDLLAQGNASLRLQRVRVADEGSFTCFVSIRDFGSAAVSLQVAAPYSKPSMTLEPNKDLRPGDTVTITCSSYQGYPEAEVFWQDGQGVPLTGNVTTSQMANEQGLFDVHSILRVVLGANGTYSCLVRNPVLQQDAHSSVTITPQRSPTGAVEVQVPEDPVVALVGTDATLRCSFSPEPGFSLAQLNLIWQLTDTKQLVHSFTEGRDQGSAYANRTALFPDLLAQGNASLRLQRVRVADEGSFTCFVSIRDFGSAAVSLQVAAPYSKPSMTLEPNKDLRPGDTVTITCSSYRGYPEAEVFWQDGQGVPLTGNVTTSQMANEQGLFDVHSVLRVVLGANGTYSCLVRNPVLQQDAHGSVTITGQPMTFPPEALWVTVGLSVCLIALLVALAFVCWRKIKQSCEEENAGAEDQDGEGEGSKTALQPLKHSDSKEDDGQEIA

B1: IL-P5-C06-H1L4 (antibody, V domains shown)
VH: QVQLVQSGAEVKKPGASVKVSCKGSGYTFTDYAIHWARQAPGQGLEWIGIINTYNGNSNYAQKFQGRATMTVDKSTSTAYMELSRLRSEDTAVYYCARNYGSSFNWYFDVWGQGTTVTVSS
VL: DIQMTQSPSSLSASVGDRVTITCRASSSISSNYLHWYQQKPGKAPKLLIYSTSNLQSGVPSRFSGSGSGTDFTLTISSLQPEDFATYYCQQYSGYPLTFGQGTKLELK
notes: Humanized from IL-P5-C06; full-length antibody; also called ILP5C06huVH1 + ILP5C06huVL4
B2: IL-P5-C06-H2L4 (antibody, V domains shown)
VH: B1 VH with A37G, V72R, K74T
VL: B1 VL
notes: Humanized from IL-P5-C06; full-length antibody; also called ILP5C06huVH2 + ILP5C06huVL4
B3: IL-P5-C06-H1L3 (antibody, V domains shown)
VH: B1 VH
VL: B1 VL with M4L, Q56A
notes: Humanized from IL-P5-C06; full-length antibody; also called ILP5C06huVH1 + ILP5C06huVL3
B4: IL-P5-C06-H3L3 (antibody, V domains shown)
VH: B1 VH with G24A, A37G, I48M, A68V, V72R, K74T
VL: B1 VL with M4L, Q56A
notes: Humanized from IL-P5-C06; full-length antibody; also called ILP5C06huVH3 + ILP5C06huVL3
B5: IL-P7-C05-H3L1 (antibody, V domains shown)
VH: EVQLVESGGGLVQPGGSLRLSCAASGFTFSSYGMSWVRQAPGKGLELVAAINSNGGSTYYADSVKGRFTISRDNAKNTLYLQMSSLRAEDTAVYYCTRNEEFRRGLAYWGQGTLVTVSS
VL: DIQMTQSPSSLSASVGDRVTITCRASENIYSNLAWYQQKPGKAPKLLVYAATNLADGVPSRFSGSGSGTDYTLTISSLQPEDFATYYCQHFWGTPPWTFGQGTKLEIK
notes: Humanized from IL-P7-C05; full-length antibody; also called ILP7C05huVH3 + ILP7C05huVL1
B6: IL-P7-C05-H3L3 (antibody, V domains shown)
VH: B5 VH
VL: B5 VL with V48I, T52S, A55Q, D56S
notes: Humanized from IL-P7-C05; full-length antibody; also called ILP7C05huVH3 + ILP7C05huVL3
B7: IL-P7-C05-H2L1 (antibody, V domains shown)
VH: B5 VH with A50T, S57T
VL: B5 VL
notes: Humanized from IL-P7-C05; full-length antibody; also called ILP7C05huVH2 + ILP7C05huVL1
B8: IL-P7-C05-H2L2 (antibody, V domains shown)
VH: B5 VH with A50T, S57T
VL: B5 VL with A55Q, D56S
notes: Humanized from IL-P7-C05; full-length antibody; also called ILP7C05huVH2 + ILP7C05huVL2
B9: IL-P7-C05-H1L1 (antibody, V domains shown)
VH: B5 VH with A50T, S57T, A61P, N77H
VL: B5 VL
notes: Humanized from IL-P7-C05; full-length antibody; also called ILP7C05huVH1 + ILP7C05huVL1
B10: IL-P7-C05-H4L1 (antibody, V domains shown)
VH: B5 VH with G33A
VL: B5 VL
notes: Humanized from IL-P7-C05; full-length antibody; also called ILP7C05huVH4 + ILP7C05huVL1

biological target: T1, B7-H3 endogenously expressed on human …; assay: flow cytometry on NCI-H322 cells
Procedure: (§1) CHOK cells overexpressing B7-H3 or NCI-H322 cells endogenously expressing B7-H3 were added to a round-bottom 96-well plate at 100,000 cells per well, centrifuged to remove the supernatant, and then added with a gradient-diluted anti-B7-H3 antibody and incubated at 4 degrees for 1 h. After incubation, the cells were washed twice with FACS buffer (PBS containing 2% FBS), then added with fluorescent-labeled goat anti-human secondary antibody (Abcam, ab98596) and incubated for 0.5 h. After incubation, the cells were washed twice with FACS buffer, then resuspended with FACS buffer and detected with flow cytometry (Beckman, cytoFlex).

EC50 | Binder
0.0436 µg/mL | B1
0.0576 µg/mL | B2
0.0829 µg/mL | B3
0.137 µg/mL | B4
0.0109 µg/mL | B5
0.0106 µg/mL | B6
0.0144 µg/mL | B7
0.0145 µg/mL | B8
0.0107 µg/mL | B9
0.0138 µg/mL | B10

biological target: T2, B7-H3 on CHOK cells overexpressing B7-H3; assay: flow cytometry on CHOK cells overexpressing B7-H3
Procedure: as §1

EC50 | Binder
0.596 µg/mL | B1
0.747 µg/mL | B2
0.941 µg/mL | B3
1.18 µg/mL | B4
0.454 µg/mL | B5
0.431 µg/mL | B6
0.426 µg/mL | B7
0.455 µg/mL | B8
0.426 µg/mL | B9
0.468 µg/mL | B10
